B1: Myosin-7 (Homo sapiens), P12883 (parent)
chain: MGDSEMAVFGAAAPYLRKSEKERLEAQTRPFDLKKDVFVPDDKQEFVKAKIVSREGGKVTAETEYGKTVTVKEDQVMQQNPPKFDKIEDMAMLTFLHEPAVLYNLKDRYGSWMIYTYSGLFCVTVNPYKWLPVYTPEVVAAYRGKKRSEAPPHIFSISDNAYQYMLTDRENQSILITGESGAGKTVNTKRVIQYFAVIAAIGDRSKKDQSPGKGTLEDQIIQANPALEAFGNAKTVRNDNSSRFGKFIRIHFGATGKLASADIETYLLEKSRVIFQLKAERDYHIFYQILSNKKPELLDMLLITNNPYDYAFISQGETTVASIDDAEELMATDNAFDVLGFTSEEKNSMYKLTGAIMHFGNMKFKLKQREEQAEPDGTEEADKSAYLMGLNSADLLKGLCHPRVKVGNEYVTKGQNVQQVIYATGALAKAVYERMFNWMVTRINATLETKQPRQYFIGVLDIAGFEIFDFNSFEQLCINFTNEKLQQFFNHHMFVLEQEEYKKEGIEWTFIDFGMDLQACIDLIEKPMGIMSILEEECMFPKATDMTFKAKLFDNHLGKSANFQKPRNIKGKPEAHFSLIHYAGIVDYNIIGWLQKNKDPLNETVVGLYQKSSLKLLSTLFANYAGADAPIEKGKGKAKKGSSFQTVSALHRENLNKLMTNLRSTHPHFVRCIIPNETKSPGVMDNPLVMHQLRCNGVLEGIRICRKGFPNRILYGDFRQRYRILNPAAIPEGQFIDSRKGAEKLLSSLDIDHNQYKFGHTKVFFKAGLLGLLEEMRDERLSRIITRIQAQSRGVLARMEYKKLLERRDSLLVIQWNIRAFMGVKNWPWMKLYFKIKPLLKSAEREKEMASMKEEFTRLKEALEKSEARRKELEEKMVSLLQEKNDLQLQVQAEQDNLADAEERCDQLIKNKIQLEAKVKEMNERLEDEEEMNAELTAKKRKLEDECSELKRDIDDLELTLAKVEKEKHATENKVKNLTEEMAGLDEIIAKLTKEKKALQEAHQQALDDLQAEEDKVNTLTKAKVKLEQQVDDLEGSLEQEKKVRMDLERAKRKLEGDLKLTQESIMDLENDKQQLDERLKKKDFELNALNARIEDEQALGSQLQKKLKELQARIEELEEELEAERTARAKVEKLRSDLSRELEEISERLEEAGGATSVQIEMNKKREAEFQKMRRDLEEATLQHEATAAALRKKHADSVAELGEQIDNLQRVKQKLEKEKSEFKLELDDVTSNMEQIIKAKANLEKMCRTLEDQMNEHRSKAEETQRSVNDLTSQRAKLQTENGELSRQLDEKEALISQLTRGKLTYTQQLEDLKRQLEEEVKAKNALAHALQSARHDCDLLREQYEEETEAKAELQRVLSKANSEVAQWRTKYETDAIQRTEELEEAKKKLAQRLQEAEEAVEAVNAKCSSLEKTKHRLQNEIEDLMVDVERSNAAAAALDKKQRNFDKILAEWKQKYEESQSELESSQKEARSLSTELFKLKNAYEESLEHLETFKRENKNLQEEISDLTEQLGSSGKTIHELEKVRKQLEAEKMELQSALEEAEASLEHEEGKILRAQLEFNQIKAEIERKLAEKDEEMEQAKRNHLRVVDSLQTSLDAETRSRNEALRVKKKMEGDLNEMEIQLSHANRMAAEAQKQVKSLQSLLKDTQIQLDDAVRANDDLKENIAIVERRNNLLQAELEELRAVVEQTERSRKLAEQELIETSERVQLLHSQNTSLINQKKKMDADLSQLQTEVEEAVQECRNAEEKAKKAITDAAMMAEELKKEQDTSAHLERMKKNMEQTIKDLQHRLDEAEQIALKGGKKQLQKLEARVRELENELEAEQKRNAESVKGMRKSERRIKELTYQTEEDRKNLLRLQDLVDKLQLKVKAYKRQAEEAEEQANTNLSKFRKVQHELDEAEERADIAESQVNKLRAKSRDIGTKGLNEE

Variants of: B1
Details: with mypc3_human MYBPC3, Q14896
Sequence of mypc3_human MYBPC3, Q14896 (Q14896 whole entry): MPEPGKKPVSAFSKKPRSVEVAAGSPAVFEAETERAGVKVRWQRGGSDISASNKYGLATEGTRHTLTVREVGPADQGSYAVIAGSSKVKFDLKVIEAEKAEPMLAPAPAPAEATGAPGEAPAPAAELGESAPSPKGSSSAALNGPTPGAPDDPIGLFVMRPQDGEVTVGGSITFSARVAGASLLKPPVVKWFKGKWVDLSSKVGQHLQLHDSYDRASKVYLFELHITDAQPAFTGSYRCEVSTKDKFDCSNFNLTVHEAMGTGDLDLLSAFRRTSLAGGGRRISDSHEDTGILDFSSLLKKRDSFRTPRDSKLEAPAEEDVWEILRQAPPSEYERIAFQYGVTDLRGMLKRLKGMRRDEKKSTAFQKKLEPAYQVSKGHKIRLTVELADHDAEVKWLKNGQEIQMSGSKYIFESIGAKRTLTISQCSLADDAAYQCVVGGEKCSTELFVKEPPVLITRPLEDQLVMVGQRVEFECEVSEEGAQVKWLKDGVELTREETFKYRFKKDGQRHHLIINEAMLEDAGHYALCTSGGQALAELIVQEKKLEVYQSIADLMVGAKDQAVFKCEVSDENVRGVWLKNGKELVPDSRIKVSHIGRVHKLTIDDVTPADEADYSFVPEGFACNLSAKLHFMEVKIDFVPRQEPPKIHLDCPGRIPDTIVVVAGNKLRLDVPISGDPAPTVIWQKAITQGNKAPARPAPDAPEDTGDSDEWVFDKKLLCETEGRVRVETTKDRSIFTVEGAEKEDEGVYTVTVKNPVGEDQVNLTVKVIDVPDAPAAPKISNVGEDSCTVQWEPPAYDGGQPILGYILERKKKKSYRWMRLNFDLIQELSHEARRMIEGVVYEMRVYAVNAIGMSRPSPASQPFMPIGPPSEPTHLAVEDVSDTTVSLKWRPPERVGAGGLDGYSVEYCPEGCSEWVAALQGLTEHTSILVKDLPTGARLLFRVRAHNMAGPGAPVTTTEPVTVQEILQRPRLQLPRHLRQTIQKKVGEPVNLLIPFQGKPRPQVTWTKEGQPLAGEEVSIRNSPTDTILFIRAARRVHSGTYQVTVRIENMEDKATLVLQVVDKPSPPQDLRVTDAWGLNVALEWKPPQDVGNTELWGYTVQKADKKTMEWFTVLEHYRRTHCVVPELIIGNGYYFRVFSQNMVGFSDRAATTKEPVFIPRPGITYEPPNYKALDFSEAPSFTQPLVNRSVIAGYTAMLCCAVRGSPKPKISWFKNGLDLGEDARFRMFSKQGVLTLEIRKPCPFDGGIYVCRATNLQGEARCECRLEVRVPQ

| effect of a mutation on the interaction | Variant |
| --- | --- |
| disrupting interaction strength | E848G |
